Data set [1] addresses endogenous RhoA of mouse brain (mouse, UniProt Q9QUI0 1-190). Put plainly: cell-based or functional assay.
Data set [2] has as its target Flag-EphB2-kinase dead (KD).
The target of data set [3] is EphA2 (expressed in HEK293T cells).
In data set [4] the target is Flag-EphB2-Acyto (cytoplasmic truncated version of EphB2).

Residue numbers refer to the chain shown, from its start. Names and notes keep the numbering of the source.

endogenous RhoA of mouse brain, sequence (Q9QUI0 1-190 limits assumed): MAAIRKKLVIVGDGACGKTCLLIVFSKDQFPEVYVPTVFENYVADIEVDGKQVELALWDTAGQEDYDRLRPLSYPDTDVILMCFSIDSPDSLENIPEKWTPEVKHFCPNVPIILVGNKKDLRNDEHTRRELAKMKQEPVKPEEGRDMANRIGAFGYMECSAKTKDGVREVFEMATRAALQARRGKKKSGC
EphA2 (expressed in HEK293T cells), sequence (P29317 whole entry, the tested form may be a part): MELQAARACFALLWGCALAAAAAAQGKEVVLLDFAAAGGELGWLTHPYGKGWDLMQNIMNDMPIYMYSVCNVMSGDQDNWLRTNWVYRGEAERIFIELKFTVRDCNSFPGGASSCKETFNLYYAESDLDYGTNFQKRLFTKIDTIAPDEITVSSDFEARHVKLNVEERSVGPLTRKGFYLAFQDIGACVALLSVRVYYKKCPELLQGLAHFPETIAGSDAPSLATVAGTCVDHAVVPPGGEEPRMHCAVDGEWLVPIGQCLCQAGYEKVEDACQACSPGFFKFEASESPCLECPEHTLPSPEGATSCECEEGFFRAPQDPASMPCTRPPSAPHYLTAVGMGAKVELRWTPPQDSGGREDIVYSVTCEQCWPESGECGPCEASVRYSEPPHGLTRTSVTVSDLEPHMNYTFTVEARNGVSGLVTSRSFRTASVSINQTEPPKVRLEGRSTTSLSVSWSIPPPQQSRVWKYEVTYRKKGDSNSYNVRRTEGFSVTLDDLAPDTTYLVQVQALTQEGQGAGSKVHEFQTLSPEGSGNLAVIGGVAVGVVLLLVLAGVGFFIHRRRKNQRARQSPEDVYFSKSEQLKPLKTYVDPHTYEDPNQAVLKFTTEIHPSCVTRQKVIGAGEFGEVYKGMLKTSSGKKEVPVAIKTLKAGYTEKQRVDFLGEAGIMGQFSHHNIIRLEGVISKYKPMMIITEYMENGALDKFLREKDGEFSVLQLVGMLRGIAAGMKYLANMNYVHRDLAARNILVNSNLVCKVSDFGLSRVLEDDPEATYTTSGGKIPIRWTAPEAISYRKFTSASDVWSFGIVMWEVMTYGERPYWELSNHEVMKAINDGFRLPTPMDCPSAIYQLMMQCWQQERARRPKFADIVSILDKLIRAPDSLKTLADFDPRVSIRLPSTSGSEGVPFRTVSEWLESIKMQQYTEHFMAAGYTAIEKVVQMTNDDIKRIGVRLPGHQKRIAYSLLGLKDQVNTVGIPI

B1: endogenous mouse Ephexin5 (neurons, brain lysates) (enzyme, UniProt Q5FWH6 1-849, looked up)
chain: MSAQSLPAATPPTLKPPRIIRPRPPSRHRAPHSPGPLHNGSSPKALPQISNDASASVCTSIFWEPPTASLKPPALLPPSVSRTSLDSQTSPDSPSSTPSPSPVSRRSISPEPAPCSPVPPPKPSGSSRTPLPSGPTPLQDGSASAPGTVRRLAGKFEWGAEGKAQSSDSLERCSQGSTEVNGEKETPEAALSGNGSQENGTPDAALACPPCCPCVCHVAKPGLELRWVPVGSSEDILRIPCRASPLRASRSRINPPVISHPPVVLTSYRSTAERKLLPPLKPPKPTKVRQDISTSEELPQPDLKLPSEDGIQTATKAWEGDRPEGAPLNAPPVALEGREEEGLDGLKGLQWELPLQDEPLYQTYRAAVLSEELWGVGEDGGPSPANPGEAPTFSRLPGPRNTLWQELPAVRGSGLLESLSPQERRMQESLFEVVTSEASYLRSLRLLTDTFVLSQALRDTLTPRDHHTLFSNVQRVQSVSERFLGTLLSRVRSSPHITDLCDVVHAHAVGPFFVYVDYVRNQQYQEETYSRLMDTNVRFSAELRRLQSLPKCERLPLPSFLLLPFQRITRLRMLLQNILSQTEEGSSRQENAQKALGAVSKIIERCSAEVGRMKQTEELIRLTQRLRFHKVKALPLVSWSRRLELQGELTELGCRRGGVLFTSRPRFTPLCLLLFSDLLLITQPKSGQRLQVLDYAHRSLVQAQQVPDPSGPPTFRLSLLSNHQGRPTHRLLQAASLSDMQRWLGAFPTPGPLPCSPDTIYEDCECSQELCSEPSTPSKTEGQSLESKAPRKHLHKNPEGWLKGLPGAFPAQLVCEVTGEHERRKHLRQHQKLLEAVGPSSGTPDTPQP
B1: in data set [1], the “anti-RhoA signal from RBD pulldown assays, Ephexin5-/- against wild type brain lysates” value is 4 fold. In addition, the “phosphorylation of Ephexin5 at Y361 (anti-pY361 immunoblot)” value in data set [2] is “when wild type EphB2, but not a kinase dead or cytoplasmic truncated version of EphB2, was expressed in HEK293T cells together with Ephexin5, Ephexin5 become tyrosine phosphorylated at Y361”; in data set [3] it was “when EphA4 or EphA2 were expressed in HEK293T cells they detected little to no phosphorylation of Ephexin5 at Y361”; with Flag-EphA4 it was “when EphA4 or EphA2 were expressed in HEK293T cells they detected little to no phosphorylation of Ephexin5 at Y361”; in data set [4], “when wild type EphB2, but not a kinase dead or cytoplasmic truncated version of EphB2, was expressed in HEK293T cells together with Ephexin5, Ephexin5 become tyrosine phosphorylated at Y361”; in the data set with Flag-EphB2, “when wild type EphB2, but not a kinase dead or cytoplasmic truncated version of EphB2, was expressed in HEK293T cells together with Ephexin5, Ephexin5 become tyrosine phosphorylated at Y361”. Further, the “tyrosine phosphorylation of Ephexin5 (anti-phosphotyrosine 4G10 immunoblot)” value with Flag-EphB2 was “in the presence of EphB2, Ephexin5-WT, but not Ephexin5-Y361F, become tyrosine phosphorylated”.

B2: Ephexin5-Y361F-Myc (protein)
chain: B1 chain with Y361F
Take B2: the “tyrosine phosphorylation of Ephexin5 (anti-phosphotyrosine 4G10 immunoblot)” value with Flag-EphB2 is “in the presence of EphB2, Ephexin5-WT, but not Ephexin5-Y361F, become tyrosine phosphorylated”.

The values are drawn from patent US20130273076A1 (Harvard, published 2013).
